According to patent publication US20200317768A1 (published 2020):

T1: human FcγRIIaR extracellular domain, C-terminal His-tag (human, UniProt P12318 34-217)
T1 construct: also called human FcγRIIa (type R); FcgRIIaR; not shown: His-tag added to the C-terminus
T1 chain: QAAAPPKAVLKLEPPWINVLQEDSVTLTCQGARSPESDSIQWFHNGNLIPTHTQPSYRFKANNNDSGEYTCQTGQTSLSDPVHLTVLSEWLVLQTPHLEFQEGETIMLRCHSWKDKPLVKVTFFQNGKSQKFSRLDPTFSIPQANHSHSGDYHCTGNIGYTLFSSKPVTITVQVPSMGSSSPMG

T2: human FcγRIIb extracellular domain, C-terminal His-tag (human, UniProt P31994 43-217)
T2 construct: also called FcgRIIb; not shown: His-tag added to the C-terminus
T2 sequence: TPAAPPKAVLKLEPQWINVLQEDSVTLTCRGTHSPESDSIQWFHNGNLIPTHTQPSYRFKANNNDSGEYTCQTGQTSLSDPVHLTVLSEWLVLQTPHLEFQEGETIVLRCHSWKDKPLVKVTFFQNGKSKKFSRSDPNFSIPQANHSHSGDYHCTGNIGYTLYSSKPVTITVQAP

T3: human FcγRIIaH extracellular domain, C-terminal His-tag (human, UniProt P12318 34-217)
T3 construct: also called human FcγRIIa (type H); FcgRIIaH; not shown: His-tag added to the C-terminus
T3 sequence: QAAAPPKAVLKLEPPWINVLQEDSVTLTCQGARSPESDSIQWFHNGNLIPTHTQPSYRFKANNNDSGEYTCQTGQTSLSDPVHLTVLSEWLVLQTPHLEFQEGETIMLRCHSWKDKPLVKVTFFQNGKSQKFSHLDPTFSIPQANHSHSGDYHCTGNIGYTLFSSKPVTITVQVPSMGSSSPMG


Legend:
[1] = target: T1, human FcγRIIaR extracellular domain, …; assay: SPR (BIACORE), antibody captured, soluble FcgR as analyte, 25C
Experimental: (§1) The kinetic analysis of interactions between these antibodies and FcγR was carried out using BIACORE® T200 or BIACORE® 4000 (GE Healthcare). HBS-EP+ (GE Healthcare) was used as the running buffer, and the measurement temperature was set to 25° C. A chip produced by immobilizing Protein A. Protein A/G or mouse anti-human IgG kappa light chain (BD Biosciences) onto a Series S Sensor Chip CM4 or CM5 (GE Healthcare) by the amine-coupling method was used. […] After the measurement, the antibody captured on the chip was washed off by allowing reaction with 10 mM glycine-HCl, pH1.5 and 25 mM NaOH so that the chip was regenerated and used repeatedly. The sensorgrams obtained as measurement results were analyzed by the 1:1 Langmuir binding model using the BIACORE® Evaluation Software to calculate the binding rate constant ka (L/mol/s) and dissociation rate constant kd (l/s), and the dissociation constant KD (mol/L) was calculated from these values. […] Regarding such interactions, KD values were calculated using the following 1:1 binding model described in BIACORE® T100 Software Handbook BR1006-48 Edition AE.
(§2) Human FcγRIIb-enhanced Fc variants with anti-myostatin variable region were constructed and their affinity for human FcγRs was evaluated. […] In addition, substitutions (Q311R/D413K or […]) were also introduced. The variants were expressed using M103202L1045-SK1 as light chain and their affinity to human FcγRs was analyzed according to the method shown in Example 34.

[2] = target: T2, human FcγRIIb extracellular domain, …; assay: as above
Experimental: as §1, §2

[3] = target: T4, human FcγRIIIaV extracellular domain, C-terminal His-tag (human, UniProt P08637 17-208); assay: as above
T4 construct: also called FcgRIIIaV; not shown: His-tag added to the C-terminus
Experimental: as §1, §2

[4] = target: T3, human FcγRIIaH extracellular domain, …; assay: as above
Experimental: as §1, §2

[5] = target: T1, human FcγRIIaR extracellular domain, …; assay: SPR; KD of SG1 divided by KD of variant;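 note: relative to parent M103205H795-SG1 carrying the SG1 human heavy chain constant region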
Experimental: as §1, §2

[6] = target: T2, human FcγRIIb extracellular domain, …; assay: SPR; KD of SG1 divided by KD of variant;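 note: relative to parent M103205H795-SG1 carrying the SG1 human heavy chain constant region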
Experimental: as §1, §2

[7] = target: T4, human FcγRIIIaV extracellular domain, …; assay: SPR; KD of SG1 divided by KD of variant;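 note: relative to parent M103205H795-SG1 carrying the SG1 human heavy chain constant region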
Experimental: as §1, §2

[8] = target: T3, human FcγRIIaH extracellular domain, …; assay: SPR; KD of SG1 divided by KD of variant;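 note: relative to parent M103205H795-SG1 carrying the SG1 human heavy chain constant region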
Experimental: as §1, §2

T4 sequence (P08637 17-208 F176V): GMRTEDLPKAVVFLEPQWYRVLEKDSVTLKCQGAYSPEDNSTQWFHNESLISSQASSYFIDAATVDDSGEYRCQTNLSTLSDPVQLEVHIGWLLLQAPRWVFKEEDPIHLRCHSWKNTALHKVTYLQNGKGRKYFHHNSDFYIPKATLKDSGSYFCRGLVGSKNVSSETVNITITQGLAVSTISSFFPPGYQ

Kd [1] [µM] | Kd [2] [µM] | Kd [3] [µM] | Kd [4] [µM] | KD fold (SG1 = 1) [5] [fold] | KD fold (SG1 = 1) [6] [fold] | KD fold (SG1 = 1) [7] [fold] | KD fold (SG1 = 1) [8] [fold] | Binder
1.1 | 0.58 | 0.81 | 0.75 | 1 | 1 | 1 | 1 | MS1032LO19-SG1 (MS103240H795-SG1/M103202L1045-SK1) (antibody, human IgG1, kappa) heavy: not shown light: DIVMTQSPATLSLSPGERATLSCTTSQSVYHENWLSWFQQKPGQPPKLLIYWASTLAYGVPSRFSGSGSGTDFTLTISSLQPEDAATYYCAGGYGGGRYAFGQGTKVEIKRTVAAPSVFIFPPSDEQLKSGTASVVCLLNNFYPREAKVQWKVDNALQSGNSQESVTEQDSKDSTYSLSSTLTLSKADYEKHKVYACEVTHQGLSSPVTKSFNRGEC
14 | 0.29 | 170 | 44 | 0.08 | 20 | 0.005 | 0.017 | MS103240H795-TT09/M103202L1045-SK1 (antibody, human IgG1, kappa, CH = SG1 with P238D/T250V/V264I/T307P/A330K (EU numbering)) heavy: QVQLVESGGGLVQPGGSLRLSCAVSGIDLSHDDISWVRQAPGKGLEWVSIISYAGSTYYASWAKGRLTISKDTSKNQVVLTMTNMDPVDTATYYCARGVPAYSHGGDLWGQGTLVTVSSASTKGPSVFPLAPSSKSTSGGTAALGCLVKDYFPEPVTVSWNSGALTSGVHTFPAVLQSSGLYSLSSVVTVPSSSLGTQTYICNVNHKPSNTKVDKKVEPKSCDKTHTCPPCPAPELLGGDSVFLFPPKPKDVLMISRTPEVTCVVIDVSHEDPEVKFNWYVDGVEVHNAKTKPREEQYNSTYRVVSVLPVLHQDWLNGKEYKCKVSNKALPKPIEKTISKAKGQPREPQVYTLPPSREEMTKNQVSLTCLVKGFYPSDIAVEWESNGQPENNYKTTPPVLDSDGSFFLYSKLTVDKSRWQQGNVFSCSVMHEALHNHYTQKSLSLSP light: DIVMTQSPATLSLSPGERATLSCTTSQSVYHENWLSWFQQKPGQPPKLLIYWASTLAYGVPSRFSGSGSGTDFTLTISSLQPEDAATYYCAGGYGGGRYAFGQGTKVEIKRTVAAPSVFIFPPSDEQLKSGTASVVCLLNNFYPREAKVQWKVDNALQSGNSQESVTEQDSKDSTYSLSSTLTLSKADYEKHKVYACEVTHQGLSSPVTKSFNRGEC
8.7 | 0.63 | 790 | 56 | 0.13 | 9.2 | 0.001 | 0.013 | MS103240H795-TT10/M103202L1045-SK1 (antibody, human IgG1, kappa, CH = SG1 with P238D/T250V/S267A/T307P/A330K (EU numbering)) heavy: QVQLVESGGGLVQPGGSLRLSCAVSGIDLSHDDISWVRQAPGKGLEWVSIISYAGSTYYASWAKGRLTISKDTSKNQVVLTMTNMDPVDTATYYCARGVPAYSHGGDLWGQGTLVTVSSASTKGPSVFPLAPSSKSTSGGTAALGCLVKDYFPEPVTVSWNSGALTSGVHTFPAVLQSSGLYSLSSVVTVPSSSLGTQTYICNVNHKPSNTKVDKKVEPKSCDKTHTCPPCPAPELLGGDSVFLFPPKPKDVLMISRTPEVTCVVVDVAHEDPEVKFNWYVDGVEVHNAKTKPREEQYNSTYRVVSVLPVLHQDWLNGKEYKCKVSNKALPKPIEKTISKAKGQPREPQVYTLPPSREEMTKNQVSLTCLVKGFYPSDIAVEWESNGQPENNYKTTPPVLDSDGSFFLYSKLTVDKSRWQQGNVFSCSVMHEALHNHYTQKSLSLSP light: DIVMTQSPATLSLSPGERATLSCTTSQSVYHENWLSWFQQKPGQPPKLLIYWASTLAYGVPSRFSGSGSGTDFTLTISSLQPEDAATYYCAGGYGGGRYAFGQGTKVEIKRTVAAPSVFIFPPSDEQLKSGTASVVCLLNNFYPREAKVQWKVDNALQSGNSQESVTEQDSKDSTYSLSSTLTLSKADYEKHKVYACEVTHQGLSSPVTKSFNRGEC
21 | 1 | 150 | 32 | 0.05 | 5.8 | 0.005 | 0.023 | MS103240H795-MY214/M103202L1045-SK1 (antibody, human IgG1, kappa, CH = SG1 with P238D/T250V/T307P (EU numbering)) heavy: QVQLVESGGGLVQPGGSLRLSCAVSGIDLSHDDISWVRQAPGKGLEWVSIISYAGSTYYASWAKGRLTISKDTSKNQVVLTMTNMDPVDTATYYCARGVPAYSHGGDLWGQGTLVTVSSASTKGPSVFPLAPSSKSTSGGTAALGCLVKDYFPEPVTVSWNSGALTSGVHTFPAVLQSSGLYSLSSVVTVPSSSLGTQTYICNVNHKPSNTKVDKKVEPKSCDKTHTCPPCPAPELLGGDSVFLFPPKPKDVLMISRTPEVTCVVVDVSHEDPEVKFNWYVDGVEVHNAKTKPREEQYNSTYRVVSVLPVLHQDWLNGKEYKCKVSNKALPAPIEKTISKAKGQPREPQVYTLPPSREEMTKNQVSLTCLVKGFYPSDIAVEWESNGQPENNYKTTPPVLDSDGSFFLYSKLTVDKSRWQQGNVFSCSVMHEALHNHYTQKSLSLSP light: DIVMTQSPATLSLSPGERATLSCTTSQSVYHENWLSWFQQKPGQPPKLLIYWASTLAYGVPSRFSGSGSGTDFTLTISSLQPEDAATYYCAGGYGGGRYAFGQGTKVEIKRTVAAPSVFIFPPSDEQLKSGTASVVCLLNNFYPREAKVQWKVDNALQSGNSQESVTEQDSKDSTYSLSSTLTLSKADYEKHKVYACEVTHQGLSSPVTKSFNRGEC
16 | 0.68 | 96 | 55 | 0.07 | 8.5 | 0.008 | 0.014 | MS103240H795-TT08/M103202L1045-SK1 (antibody, human IgG1, kappa, CH = SG1 with P238D/T250V/T307P/A330K (EU numbering)) heavy: QVQLVESGGGLVQPGGSLRLSCAVSGIDLSHDDISWVRQAPGKGLEWVSIISYAGSTYYASWAKGRLTISKDTSKNQVVLTMTNMDPVDTATYYCARGVPAYSHGGDLWGQGTLVTVSSASTKGPSVFPLAPSSKSTSGGTAALGCLVKDYFPEPVTVSWNSGALTSGVHTFPAVLQSSGLYSLSSVVTVPSSSLGTQTYICNVNHKPSNTKVDKKVEPKSCDKTHTCPPCPAPELLGGDSVFLFPPKPKDVLMISRTPEVTCVVVDVSHEDPEVKFNWYVDGVEVHNAKTKPREEQYNSTYRVVSVLPVLHQDWLNGKEYKCKVSNKALPKPIEKTISKAKGQPREPQVYTLPPSREEMTKNQVSLTCLVKGFYPSDIAVEWESNGQPENNYKTTPPVLDSDGSFFLYSKLTVDKSRWQQGNVFSCSVMHEALHNHYTQKSLSLSP light: DIVMTQSPATLSLSPGERATLSCTTSQSVYHENWLSWFQQKPGQPPKLLIYWASTLAYGVPSRFSGSGSGTDFTLTISSLQPEDAATYYCAGGYGGGRYAFGQGTKVEIKRTVAAPSVFIFPPSDEQLKSGTASVVCLLNNFYPREAKVQWKVDNALQSGNSQESVTEQDSKDSTYSLSSTLTLSKADYEKHKVYACEVTHQGLSSPVTKSFNRGEC
23 | 1.3 | 220 | 73 | 0.05 | 4.5 | 0.004 | 0.01 | MS103240H795-MY009/M103202L1045-SK1 (antibody, human IgG1, kappa, CH = SG1 with P238D (EU numbering)) heavy: not shown light: DIVMTQSPATLSLSPGERATLSCTTSQSVYHENWLSWFQQKPGQPPKLLIYWASTLAYGVPSRFSGSGSGTDFTLTISSLQPEDAATYYCAGGYGGGRYAFGQGTKVEIKRTVAAPSVFIFPPSDEQLKSGTASVVCLLNNFYPREAKVQWKVDNALQSGNSQESVTEQDSKDSTYSLSSTLTLSKADYEKHKVYACEVTHQGLSSPVTKSFNRGEC
